Test results reported in US20250163176A1, “MONOCLONAL ANTIBODY AGAINST TROP2 AND USE THEREOF” (INSTITUTE OF MEDICAL BIOTECHNOLOGY, CHINESE ACADEMY OF …, priority 2022, published 2025).

How the values were obtained:
Experiment in all cases: cytotoxic activity against tumor cells cultured in vitro (CCK-8)
Type in all cases: cell-based
A431 = conditions: A431, 48 h culture
Method: (§1) Tumor cells in the logarithmic growth phase after subculture were selected and prepared into a single-cell suspension and cell counting was performed. The cell concentration was adjusted to 3×10^3 cells/well, and the cells were inoculated into a 96-well plate with 80 μL/well. After 24 h of incubation, 20 μL of anti-Trop2-IgG, LDM, and Anti-Trop2-IgG-LDM diluted to different concentrations were added, with three parallel wells for each concentration. After 48 h of culture, 10 μL of CCK-8 reagent was added to each well in the dark, followed by shaking for 3 min and incubation in an incubator for 1 h. The 96-well plate was taken and shaken for 2 min, and the OD value at 450 nm was measured using a microplate reader. In addition to the drug-treated groups at different concentrations, three parallel wells each for the drug-free control group and the cell-free blank group were set up.

A549 = conditions: A549, 48 h culture
Method: as §1

ECA109 = conditions: ECA109, 48 h culture
Method: as §1

KYSE150 = conditions: KYSE150, 48 h culture
Method: as §1

B1: LDM: antitumor antibiotic lidamycin: protein LDP (SEQ ID NO:37) with bound active enediyne (AE) chromophore of Formula I (protein)
chain: APAFSVSPASGLSDGQSVSVSVSGAAAGETYYIAQCAPVGGQDACNPATATSFTTDASGAASFSFVVRKSYTGSTPEGTPVGSVDCATAACNLGAGNSGLDLGHVALTFG
modifications: bound enediyne chromophore
For B1, which IC50 (A431) is on record?
Its IC50 is 0.007 ± 0.002 nM.

What about the IC50 (A549) of the same molecule?
The IC50 was 0.169 ± 0.017 nM.

What about the IC50 (ECA109) of the same molecule?
Its IC50 is 0.445 ± 0.034 nM.

And the IC50 (KYSE150)?
Its IC50 is 0.995 ± 0.008 nM.
